# Experiments:
# [1] = target: T1, EDIII-DV4 (E protein domain III of dengue virus serotype DV-4) (dengue virus serotype DV-4, UniProt P09866 572-679)
# T1 construct: also called DENV-4
# [2] = target: T1, EDIII-DV4 (E protein domain III of …); assay: affinity for EDIII-DV-4, tables of FIG. 5; method not stated
# T1 sequence (P09866 572-679, tags left off): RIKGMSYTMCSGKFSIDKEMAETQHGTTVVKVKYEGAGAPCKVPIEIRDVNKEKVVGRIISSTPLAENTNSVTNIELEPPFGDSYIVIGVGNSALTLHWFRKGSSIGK
binder,measurement,setting,value
"antibody D48 (antibody, V domains shown) VH: VKLLEQSGAEVKKPGASVKVSCKASGFNIKDVYMSWVRQAPEQGLEWMGRIDPENGDTKYDPKLQGRVTMTADTSTNTAYMELRSLRSDDTAVYYCARGWEGFAYWGQGTLVTVSS VL: DIVMTQSPASLAVSLGERATISCRASENVDKYGNSFMHWYQQKPGQPPKLLIYRASELQWGVPDRFSGSGSGTDFTLTISSLQAEDVAVYYCQRSNEVPWTFGQGTKLEIK",Kd,[1],7.49 nM
same,fold improvement in affinity relative to an antibody with a fully humanized N-terminus,[2],~2 fold

# — patent US20240425569A1 (VISTERRA, published 2024)
